Results as given in patent US20250277057A1 (OKLAHOMA MEDICAL RESEARCH FOUNDATION, published 2025).
Changes are numbered by the printed parent chain. Names and notes keep the numbering of the source. Each block holds one binder with its values, some of them ahead of it.

Legend:
[1] = molecular target: T1, human activated protein C (human, UniProt P04070 43-197; P04070 212-461); experiment: direct antigen coating ELISA (KD ELISA) of Fab periplasmic extract, anti-c-myc HRP
T1 construct: In the plasma assays aPC is generated in human plasma with Protac; also called aPC; haPC
Protocol: Each well of 96-well plates was coated with an anti-Fab antibody in a coating buffer PBS with pH 7.4 at 4° C. The next day, the plates were blocked with casein in PBS with pH 7.4 at 25° C. for 1 hour. Then, Fab PE was added to the plates, and incubated at 25° C. for 1 hour. After the plates were washed, biotinylated antigen was added to the wells and incubated at 25° C. for 1 hour. Then, the biotinylated antigen was incubated with an SA-horseradish peroxidase (HRP) conjugate at 25° C. for 1 hour. HRP activity was detected with a tetramethylbenzidine (TMB) substrate, and the reaction was quenched with 2M HCl. The plates were read at 450 nm. […] The binding-improved mutants with unique sequences of HAPC-14 were ranked by direct antigen coating ELISA.
Each well of 96-well plates was coated with hPro1. biotin in 1×PBS buffer with pH 7.4, and incubation was carried out overnight at 4° C. The next day, the plates were blocked with casein in 1×PBS buffer with pH 7.4 at 25° C. for 1 hour. Fab PE of each mutant diluted according to one concentration was added to the plates and incubated at 25° C. for 1 hour. Then the Fab PE was incubated with goat anti-c-myc HRP conjugated at 25° C. for 1 hour. HRP activity was detected with a tetramethylbenzidine (TMB) substrate, and the reaction was quenched with 2M HCl. OD values of each plate were read at 450 nm.

[2] = molecular target: T1, human activated protein C; experiment: KD ELISA ranking, direct antigen coating ELISA of Fab
[3] = molecular target: T1, human activated protein C; experiment: cell-based or functional assay
human protein C = molecular target: T2, human protein C (human, UniProt P04070 43-461); experiment: ELISA, plate coated with hPC 1 ug/mL, anti-hIgG-Fc-HRP
T2 construct: Zymogen form, coated on ELISA plates; also called hPC; PC
Protocol: (§1) The binding abilities of the anti-aPC monoclonal antibodies to haPC/hPC were assayed by Elisa. […] 1. ELISA plates were coated with haPC/hPC (1 ug/mL in PBS), 100 μL/well, at 4° C. overnight. […] 2. The plates were washed 3 times with PBST (0.1% Tween 20), 200 μL/well. […] 3. The plates were blocked with 2% BSA (PBS solution), 200 μL/well, at room temperature for 1 hour. […] 4. The plates were washed 3 times with PBST (0.1% Tween 20), 200 μL/well. […] 5. The plates were incubated with anti-aPC monoclonal antibody as primary antibody (diluted from 10 μg/mL in 2% BSA), 100 μL/well, at room temperature for 1 hour. […] 6. The plates were washed 3 times with PBST (0.1% Tween 20), 200 μL/well. [0200] 7. The plates were incubated with anti-hIgG-Fc antibody-HRP (diluted 5000-fold in 2% BSA buffer) at room temperature for 1 hour. [0201] 8. The plates were washed 6 times with PBST (0.1% Tween 20), 200 μL/well. [0202] 9. The plates were incubated with a TMB substrate (prepared from solutions A and B at 1:1 (v/v)), 100 μL/well, away from light for 10 minutes. […] 10. The reaction was quenched with HCl (1 M), 100 μL/well, and OD450 was read.

[4] = molecular target: T1, human activated protein C; experiment: ELISA, plate coated with haPC 1 ug/mL, anti-hIgG-Fc-HRP
Protocol: as §1

[5] = molecular target: T1, human activated protein C; experiment: Octet BLI, antibody on Protein A sensor, huAPC 3.13-50 nM, 1:1 model, 25 C, pH 7.4
Protocol: Assay method: Octet analysis was carried out at 25° C. using a Protein A Octet biosensor in 1× Kinetics buffer. During the kinetics assay, the baseline step assay was run in 1× Kinetics buffer for 120 seconds, and then run for 240 seconds after the antibody was loaded to the biosensor. Next, the baseline 2 step assay was run in 1× Kinetics buffer for 120 seconds. […] The 1× Kinetics buffer was used as a blank control to show the natural dissociation of the antibody in the buffer. 10 mM glycine at pH 1.5 was used for the regeneration step. Octet data analysis software was used to calculate binding kinetics, and a 1:1 binding model was used for curve fitting.
The affinities of the mutant antibodies were assayed at pH 7.4.

B1: HAPC-14-R1-1H1-F2 (Fab, V domains shown)
VH: EVQLVESGGGLVQPGGSLRLSCAASGFTFSFYYLNWVRQAPGKGLEWVGDIRLKSNNYEKHYAESVKGRFTISRDDSKSITYLQMNSLRAEDTAVYYCAREGDYFDYWGQGTTVTVSS
VL: DIQLTQSPSSLSASVGDRVTITCRASESVDSFGATFMHWYQQKPGKAPKLLIYLASNLESGVPSRFSGSGSGTDFTLTISSLQPEDFATYYCQQNNEDPYTFGQGTKLEIK
notes: Single-site mutant Fab of HAPC-14 in periplasmic extract
Bmax [1]: 0.278

B2: R2-22B6 (Fab, V domains shown)
VH: B1 VH
VL: B1 VL with N57R, E59G
notes: Combinatorial mutant Fab of HAPC-14; also called combinatorial mutant No. 15
Bmax [2]: 1.21

B3: R2-26E4 (Fab, V domains shown)
VH: B1 VH with S55K
VL: B1 VL with N57R, E59G, Q93V
notes: Combinatorial mutant Fab of HAPC-14; also called combinatorial mutant No. 4
Bmax [2]: 1.21

B5: R2-23H2 (Fab, V domains shown)
VH: B1 VH with S55K
VL: B1 VL with N57W, E59G
notes: Combinatorial mutant Fab of HAPC-14; also called combinatorial mutant No. 2
Bmax [2]: 1.26

B8: R2-24F3 (Fab, V domains shown)
VH: B1 VH with S55K
VL: B1 VL with N57W, E59G, Q93V
notes: Combinatorial mutant Fab of HAPC-14; Printed CDRs are the same as those of R2-32E6; also called combinatorial mutant No. 1
Bmax [2]: 1.37

B10: R2-24H1 (Fab, V domains shown)
VH: B1 VH
VL: B1 VL with N57R, E59G, Q93V
notes: Combinatorial mutant Fab of HAPC-14; also called combinatorial mutant No. 8
Bmax [2]: 1.25

B11: R2-23E10 (Fab, V domains shown)
VH: B1 VH
VL: B1 VL with N57W, E59G
notes: Combinatorial mutant Fab of HAPC-14; also called combinatorial mutant No. 12
Bmax [2]: 1.24

B14: R2-24D4 (Fab, V domains shown)
VH: B1 VH with S55K, Y104T
VL: B1 VL with N57W, E59P
notes: Combinatorial mutant Fab of HAPC-14; also called combinatorial mutant No. 10
Bmax [2]: 0.717

B18: R2-9C1 (Fab, V domains shown)
VH: B1 VH with S55K
VL: B1 VL with N57W, Q93V
notes: Combinatorial mutant Fab of HAPC-14; also called combinatorial mutant No. 16
Bmax [2]: 1.09

B20: R2-27G7 (Fab, V domains shown)
VH: B1 VH with S55K
VL: B1 VL with N57R, E59G
notes: Combinatorial mutant Fab of HAPC-14; also called combinatorial mutant No. 6
Bmax [2]: 0.715

B21: R2-32E6 (Fab, V domains shown)
VH: B1 VH with S55K
VL: B1 VL with N57W, E59G, Q93V
notes: Combinatorial mutant Fab of HAPC-14; Printed CDRs are the same as those of R2-24F3; also called combinatorial mutant No. 14
Bmax [2]: 1.41

B22: R2-25B7 (Fab, V domains shown)
VH: B1 VH
VL: B1 VL with N57W, E59P, Q93V
notes: Combinatorial mutant Fab of HAPC-14; also called combinatorial mutant No. 5
Bmax [2]: 1.07

B23: R2-30F7 (Fab, V domains shown)
VH: B1 VH
VL: B1 VL with N57R, E59P, Q93V
notes: Combinatorial mutant Fab of HAPC-14; also called combinatorial mutant No. 11
Bmax [2]: 0.617

B24: R2-22A10 (Fab, V domains shown)
VH: B1 VH with S55K
VL: B1 VL with N57R, Q93V
notes: Combinatorial mutant Fab of HAPC-14; also called combinatorial mutant No. 9
Bmax [2]: 1.01

B27: R2-25G5 (Fab, V domains shown)
VH: B1 VH with S55K
VL: B1 VL with N57W, E59P, Q93V
notes: Combinatorial mutant Fab of HAPC-14; also called combinatorial mutant No. 3
Bmax [2]: 1.04

B28: R2-29D9 (Fab, V domains shown)
VH: B1 VH with S55K, Y104T
VL: B1 VL with N57R, E59P, Q93V
notes: Combinatorial mutant Fab of HAPC-14; also called combinatorial mutant No. 7
Bmax [2]: 0.96

The next lines start with the values.

Bmax [1]: 0.325
B4: HAPC-14-R1-3H4-C6 (Fab, V domains shown)
VH: B1 VH with F31N, Y104T
VL: B1 VL
notes: Single-site mutant Fab of HAPC-14

Bmax [1]: 0.287
B6: HAPC-14-R1-2L4-G9 (Fab, V domains shown)
VH: B1 VH with F31N
VL: B1 VL with N57K
notes: Single-site mutant Fab of HAPC-14; inferred from the clone name (2L4, same site as N57R/W)

Bmax [1]: 0.244
B7: HAPC-14-R1-2L4-A1 (Fab, V domains shown)
VH: B1 VH with F31N
VL: B1 VL with N57L
notes: as for B6

Bmax [1]: 0.662
B9: HAPC-14-R1-2L4-B2 (Fab, V domains shown)
VH: B1 VH with F31N
VL: B1 VL with N57W
notes: as for B4

Bmax [1]: 0.328
B12: HAPC-14-R1-3H4-C5 (Fab, V domains shown)
VH: B1 VH with F31N, Y104S
VL: B1 VL
notes: Single-site mutant Fab of HAPC-14; inferred from the clone name (3H4 = VH CDR3, 4th residue, same site as Y104T)

Bmax [1]: 0.299
B13: HAPC-14-R1-2L6-F2 (Fab, V domains shown)
VH: B1 VH with F31N
VL: B1 VL with E59K
notes: Single-site mutant Fab of HAPC-14; inferred from the clone name (2L6, same site as E59G/P)

Bmax [1]: 0.261
B15: HAPC-14-R1-3L1-D11 (Fab, V domains shown)
VH: B1 VH with F31N
VL: B1 VL with Q93W
notes: Single-site mutant Fab of HAPC-14; inferred from the clone name (3L1, same site as Q93V)

Bmax [1]: 0.567
B16: HAPC-14-R1-2L4-D4 (Fab, V domains shown)
VH: B1 VH with F31N
VL: B1 VL with N57R
notes: as for B4

Bmax [1]: 0.262
B17: HAPC-14-R1-2H6-C2 (Fab, V domains shown)
VH: B1 VH with F31N, S55K
VL: B1 VL
notes: as for B4

Mean clotting time (s), FIX-deficient plasma, APC-antibody concentration 0.05 ug/ml [3]: 732 s | Mean clotting time (s), FIX-deficient plasma, APC-antibody concentration 0.1 ug/ml [3]: 392 s | Mean clotting time (s), FIX-deficient plasma, APC-antibody concentration 0.5 ug/ml [3]: 276 s | Mean clotting time (s), FVIII-deficient plasma, APC-antibody concentration 0.05 ug/ml [3]: 316 s | Mean clotting time (s), FVIII-deficient plasma, APC-antibody concentration 0.1 ug/ml [3]: 252 s | Mean clotting time (s), FVIII-deficient plasma, APC-antibody concentration 0.5 ug/ml [3]: 190 s | Span (human protein C): -0.00465 | EC50 [4]: 0.138 nM | Span [4]: 1.05 | Kd [5]: 10.5 nM | koff [5]: 0.00262 s⁻¹ | kon [5]: 250000 M⁻¹ s⁻¹
B19: HAPC-14-8 (antibody, V domains shown)
VH: B1 VH with S55K, Y104T
VL: B1 VL with N57R, E59G, Q93V
notes: Whole IgG, backbone hIgG1; also called HPAC 14-8

Bmax [1]: 0.24
B25: HAPC-14-R1-3L1-G8 (Fab, V domains shown)
VH: B1 VH with F31N
VL: B1 VL with Q93V
notes: as for B4

Bmax [1]: 0.151
B26: HAPC-14-R1-1L7-B9 (Fab, V domains shown)
VH: B1 VH with F31N
VL: B1 VL with D30A
notes: Single-site mutant Fab of HAPC-14; inferred from the clone name (1L7 = VL CDR1, 7th residue, the only D of that CDR)

Bmax [1]: 0.193
B29: HAPC-14-R1-3H7-F2 (Fab, V domains shown)
VH: B1 VH with F31N, Y107P
VL: B1 VL
notes: Single-site mutant Fab of HAPC-14; inferred from the clone name (3H7 = VH CDR3, 7th residue)

Bmax [1]: 0.492
B30: HAPC-14-R1-2L6-G1 (Fab, V domains shown)
VH: B1 VH with F31N
VL: B1 VL with E59G
notes: as for B4
